Measurements published in publication PMC10136559, “An Aptamer That Rapidly Internalizes into Cancer Cells Utilizes the Transferrin Receptor Pathway”.

Assays:
[1] = target: mouse transferrin receptor (mTfR) (Mus musculus, UniProt Q62351 89-763); assay: bead-based flow cytometry; 200 nM aptamer; SB1T: 40 mM HEPES, 125 mM NaCl, 5 mM KCl, 1 mM MgCl2, 1 mM CaCl2, 0.05% Tween20, 1 mg/mL salmon sperm DNA; 37 °C, 30 min; pH not stated; conditions: protein: recombinant, chain copies: 2, label: 5' DyLight 650 via thiol C6
mouse transferrin receptor (mTfR), sequence (Q62351 89-763): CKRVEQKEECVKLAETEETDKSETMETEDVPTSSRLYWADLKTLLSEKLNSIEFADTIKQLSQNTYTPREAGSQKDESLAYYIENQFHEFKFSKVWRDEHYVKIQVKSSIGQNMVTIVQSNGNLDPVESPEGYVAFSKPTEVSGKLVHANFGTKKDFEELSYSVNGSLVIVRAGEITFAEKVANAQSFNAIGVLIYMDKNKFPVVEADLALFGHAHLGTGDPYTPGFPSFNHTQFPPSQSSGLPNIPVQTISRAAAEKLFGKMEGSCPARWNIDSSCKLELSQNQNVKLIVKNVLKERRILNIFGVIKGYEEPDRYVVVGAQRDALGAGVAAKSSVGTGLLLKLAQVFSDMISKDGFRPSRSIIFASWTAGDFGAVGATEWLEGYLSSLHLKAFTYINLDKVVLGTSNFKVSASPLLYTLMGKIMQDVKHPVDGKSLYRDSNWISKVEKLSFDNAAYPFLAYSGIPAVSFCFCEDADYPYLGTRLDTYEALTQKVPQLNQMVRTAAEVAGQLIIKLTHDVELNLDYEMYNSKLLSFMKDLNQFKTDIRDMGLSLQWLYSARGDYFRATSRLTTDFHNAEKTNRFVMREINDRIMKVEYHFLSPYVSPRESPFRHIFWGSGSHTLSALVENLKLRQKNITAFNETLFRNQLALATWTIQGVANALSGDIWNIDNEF

[2] = target: T1, human transferrin receptor 1 (hTfR) (Homo sapiens, UniProt P02786 89-760); assay: bead-based flow cytometry; apparent Kd; SB1T: 40 mM HEPES, 125 mM NaCl, 5 mM KCl, 1 mM MgCl2, 1 mM CaCl2, 0.05% Tween20, 1 mg/mL salmon sperm DNA; 37 °C, 30 min; pH not stated; conditions: protein: recombinant, tags: His, chain copies: 2, label: 5' DyLight 650 via thiol C6
T1 sequence (P02786 89-760): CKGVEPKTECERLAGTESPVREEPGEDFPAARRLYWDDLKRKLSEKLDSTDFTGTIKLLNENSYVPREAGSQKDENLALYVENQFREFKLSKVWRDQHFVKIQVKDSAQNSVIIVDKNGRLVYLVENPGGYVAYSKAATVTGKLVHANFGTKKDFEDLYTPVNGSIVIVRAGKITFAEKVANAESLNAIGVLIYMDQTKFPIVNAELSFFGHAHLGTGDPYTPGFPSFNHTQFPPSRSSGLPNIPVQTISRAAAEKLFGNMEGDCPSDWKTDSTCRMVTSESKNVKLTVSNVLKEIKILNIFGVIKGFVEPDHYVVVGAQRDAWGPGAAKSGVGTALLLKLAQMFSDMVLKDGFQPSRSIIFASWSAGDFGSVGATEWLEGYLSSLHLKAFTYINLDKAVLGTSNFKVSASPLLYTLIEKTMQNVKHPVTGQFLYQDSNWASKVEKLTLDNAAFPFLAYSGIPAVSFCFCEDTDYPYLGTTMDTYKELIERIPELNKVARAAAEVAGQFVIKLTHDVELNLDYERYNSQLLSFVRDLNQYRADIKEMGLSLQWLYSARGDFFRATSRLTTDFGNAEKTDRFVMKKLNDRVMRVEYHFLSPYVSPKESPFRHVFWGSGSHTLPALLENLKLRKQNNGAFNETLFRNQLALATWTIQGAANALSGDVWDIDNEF

[3] = target: T1, human transferrin receptor 1 (hTfR); assay: bead-based flow cytometry; apparent Kd; 0-100 nM aptamer range; SB1T: 40 mM HEPES, 125 mM NaCl, 5 mM KCl, 1 mM MgCl2, 1 mM CaCl2, 0.05% Tween20, 1 mg/mL salmon sperm DNA; 37 °C, 30 min; pH not stated; conditions: protein: recombinant; tags: His; chain copies: 2; label: 5' DyLight 650 via thiol C6
[4] = hairpin with bulge and loop (predicted)

B1: C36 (DL650-C36) (XNA)
RNA: GGCGUAGUGAUUAUGAAUCGUGUGCUAAUACACGCC
modifications: 2'-fluoro pyrimidines; 3' inverted dT
binding result [1]: no binding

B2: C2.min (DL650-C2.min) (XNA)
RNA: GGGGGAUCAAUCCAAGGGACCCGGAAACGCUCCCUUACACCCC
modifications: 2'-fluoro pyrimidines; 3' inverted dT
Kd [2]: 7.44 nM

B3: E3 (DL650-E3) (XNA)
RNA: GGCUUUCGGGCUUUCGGCAACAUCAGCCCCUCAGCC
modifications: 2'-fluoro pyrimidines; 3' inverted dT
Kd [2, 4]: 4.23 nM
binding result [1, 4]: no binding

B4: Waz (DL650-Waz) (XNA)
RNA: GGGUUCUACGAUAAACGGUUAAUGACCAGCUUAUGGCUGGCAGUUCCC
modifications: 2'-fluoro pyrimidines; 3' inverted dT
binding result [1]: no binding
Kd [3]: 22.1 nM
